{
  "source": "patent US20210139548A1",
  "about": "(published 2021)",
  "target": "T1, human neuropeptide Y2 receptor (human, UniProt P49146 1-381)",
  "T1 construct": "whole, on cells; also called hNPY2 receptor; hNPY2-R",
  "T1 sequence (looked up)": "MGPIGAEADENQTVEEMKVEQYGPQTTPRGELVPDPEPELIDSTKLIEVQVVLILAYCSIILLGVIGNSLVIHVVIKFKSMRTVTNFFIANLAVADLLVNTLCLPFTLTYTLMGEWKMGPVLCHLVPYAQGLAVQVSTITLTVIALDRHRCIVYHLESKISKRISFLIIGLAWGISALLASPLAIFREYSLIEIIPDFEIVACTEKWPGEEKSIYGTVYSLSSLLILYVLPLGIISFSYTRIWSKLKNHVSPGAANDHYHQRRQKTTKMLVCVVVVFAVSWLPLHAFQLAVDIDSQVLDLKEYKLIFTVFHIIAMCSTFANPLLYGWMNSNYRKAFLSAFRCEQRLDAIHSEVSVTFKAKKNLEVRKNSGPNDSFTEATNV",
  "experiment": "radioligand competition (125I-PYY(1-36)), hNPY2R membranes",
  "method_in_brief": "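Commercial human Y2 receptor membranes (0.5 μg protein/well) were incubated with peptide for 2 h at room temperature in 50 mM HEPES, 5 mM MgCl₂, 1 mM CaCl₂, pH 7.4, with 0.2% ovalbumin. Bound radioligand was separated on PEI-soaked GF/C filters and counted by scintillation, and IC₅₀ came from nonlinear sigmoidal regression.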",
  "note": "*1 amine or outer side, *2 acyl side, *3 side chain or, on linkers, in order; H or OH if unused. Side-chain parts run from the residue outwards. The star is where a group is joined. C18 diacid = O=C(O)CCCCCCCCCCCCCCCCC(=O)*; γGlu = O=C(O)[C@H](CCC(=O)[*:2])N[*:1]; Isovaleryl = CC(C)CC(=O)*; AEEA = NCCOCCOCC(=O)O",
  "data": [
    {"binder": "Isovaleryl-APEK([AEEA-AEEA-γGlu-C18 diacid])PEEETSPEELQRYYVSLRHYYNWLTRQRY-NH2 (SMILES CC(C)CC(=O)N[C@@H](C)C(=O)N1CCC[C@H]1C(=O)N[C@@H](CCC(=O)O)C(=O)N[C@@H](CCCCNC(=O)COCCOCCNC(=O)COCCOCCNC(=O)CC[C@H](NC(=O)CCCCCCCCCCCCCCCCC(=O)O)C(=O)O)C(=O)N1CCC[C@H]1C(=O)N[C@@H](CCC(=O)O)C(=O)N[C@@H](CCC(=O)O)C(=O)N[C@@H](CCC(=O)O)C(=O)N[C@H](C(=O)N[C@@H](CO)C(=O)N1CCC[C@H]1C(=O)N[C@@H](CCC(=O)O)C(=O)N[C@@H](CCC(=O)O)C(=O)N[C@@H](CC(C)C)C(=O)N[C@@H](CCC(N)=O)C(=O)N[C@@H](CCCNC(=N)N)C(=O)N[C@@H](Cc1ccc(O)cc1)C(=O)N[C@@H](Cc1ccc(O)cc1)C(=O)N[C@H](C(=O)N[C@@H](CO)C(=O)N[C@@H](CC(C)C)C(=O)N[C@@H](CCCNC(=N)N)C(=O)N[C@@H](Cc1c[nH]cn1)C(=O)N[C@@H](Cc1ccc(O)cc1)C(=O)N[C@@H](Cc1ccc(O)cc1)C(=O)N[C@@H](CC(N)=O)C(=O)N[C@@H](Cc1c[nH]c2ccccc12)C(=O)N[C@@H](CC(C)C)C(=O)N[C@H](C(=O)N[C@@H](CCCNC(=N)N)C(=O)N[C@@H](CCC(N)=O)C(=O)N[C@@H](CCCNC(=N)N)C(=O)N[C@@H](Cc1ccc(O)cc1)C(N)=O)[C@@H](C)O)C(C)C)[C@@H](C)O)", "note": "[Compound 213]", "values": [
      {"measurement": "Ki", "result": 6.54, "unit": "nM"}
    ]},
    {"binder": "Isovaleryl-APEK([AEEA-AEEA-γGlu-C18 diacid])PEEEAAPEELQRYYVSLRHYYNWLTRQRY-NH2 (SMILES CC(C)CC(=O)N[C@@H](C)C(=O)N1CCC[C@H]1C(=O)N[C@@H](CCC(=O)O)C(=O)N[C@@H](CCCCNC(=O)COCCOCCNC(=O)COCCOCCNC(=O)CC[C@H](NC(=O)CCCCCCCCCCCCCCCCC(=O)O)C(=O)O)C(=O)N1CCC[C@H]1C(=O)N[C@@H](CCC(=O)O)C(=O)N[C@@H](CCC(=O)O)C(=O)N[C@@H](CCC(=O)O)C(=O)N[C@@H](C)C(=O)N[C@@H](C)C(=O)N1CCC[C@H]1C(=O)N[C@@H](CCC(=O)O)C(=O)N[C@@H](CCC(=O)O)C(=O)N[C@@H](CC(C)C)C(=O)N[C@@H](CCC(N)=O)C(=O)N[C@@H](CCCNC(=N)N)C(=O)N[C@@H](Cc1ccc(O)cc1)C(=O)N[C@@H](Cc1ccc(O)cc1)C(=O)N[C@H](C(=O)N[C@@H](CO)C(=O)N[C@@H](CC(C)C)C(=O)N[C@@H](CCCNC(=N)N)C(=O)N[C@@H](Cc1c[nH]cn1)C(=O)N[C@@H](Cc1ccc(O)cc1)C(=O)N[C@@H](Cc1ccc(O)cc1)C(=O)N[C@@H](CC(N)=O)C(=O)N[C@@H](Cc1c[nH]c2ccccc12)C(=O)N[C@@H](CC(C)C)C(=O)N[C@H](C(=O)N[C@@H](CCCNC(=N)N)C(=O)N[C@@H](CCC(N)=O)C(=O)N[C@@H](CCCNC(=N)N)C(=O)N[C@@H](Cc1ccc(O)cc1)C(N)=O)[C@@H](C)O)C(C)C)", "note": "[Compound 219]", "values": [
      {"measurement": "Ki", "result": 7.6, "unit": "nM"}
    ]},
    {"binder": "Isovaleryl-APEK([AEEA-AEEA-γGlu-C18 diacid])PEEDSSPEELQRYYVALRHYYNWLTRQRY-NH2 (SMILES CC(C)CC(=O)N[C@@H](C)C(=O)N1CCC[C@H]1C(=O)N[C@@H](CCC(=O)O)C(=O)N[C@@H](CCCCNC(=O)COCCOCCNC(=O)COCCOCCNC(=O)CC[C@H](NC(=O)CCCCCCCCCCCCCCCCC(=O)O)C(=O)O)C(=O)N1CCC[C@H]1C(=O)N[C@@H](CCC(=O)O)C(=O)N[C@@H](CCC(=O)O)C(=O)N[C@@H](CC(=O)O)C(=O)N[C@@H](CO)C(=O)N[C@@H](CO)C(=O)N1CCC[C@H]1C(=O)N[C@@H](CCC(=O)O)C(=O)N[C@@H](CCC(=O)O)C(=O)N[C@@H](CC(C)C)C(=O)N[C@@H](CCC(N)=O)C(=O)N[C@@H](CCCNC(=N)N)C(=O)N[C@@H](Cc1ccc(O)cc1)C(=O)N[C@@H](Cc1ccc(O)cc1)C(=O)N[C@H](C(=O)N[C@@H](C)C(=O)N[C@@H](CC(C)C)C(=O)N[C@@H](CCCNC(=N)N)C(=O)N[C@@H](Cc1c[nH]cn1)C(=O)N[C@@H](Cc1ccc(O)cc1)C(=O)N[C@@H](Cc1ccc(O)cc1)C(=O)N[C@@H](CC(N)=O)C(=O)N[C@@H](Cc1c[nH]c2ccccc12)C(=O)N[C@@H](CC(C)C)C(=O)N[C@H](C(=O)N[C@@H](CCCNC(=N)N)C(=O)N[C@@H](CCC(N)=O)C(=O)N[C@@H](CCCNC(=N)N)C(=O)N[C@@H](Cc1ccc(O)cc1)C(N)=O)[C@@H](C)O)C(C)C)", "note": "[Compound 218]", "values": [
      {"measurement": "Ki", "result": 1.49, "unit": "nM"}
    ]},
    {"binder": "Isovaleryl-APAK([AEEA-AEEA-γGlu-C18 diacid])PEEDASPEELEQYYVSLRHYYNWLTRQRY-NH2 (SMILES CC(C)CC(=O)N[C@@H](C)C(=O)N1CCC[C@H]1C(=O)N[C@@H](C)C(=O)N[C@@H](CCCCNC(=O)COCCOCCNC(=O)COCCOCCNC(=O)CC[C@H](NC(=O)CCCCCCCCCCCCCCCCC(=O)O)C(=O)O)C(=O)N1CCC[C@H]1C(=O)N[C@@H](CCC(=O)O)C(=O)N[C@@H](CCC(=O)O)C(=O)N[C@@H](CC(=O)O)C(=O)N[C@@H](C)C(=O)N[C@@H](CO)C(=O)N1CCC[C@H]1C(=O)N[C@@H](CCC(=O)O)C(=O)N[C@@H](CCC(=O)O)C(=O)N[C@@H](CC(C)C)C(=O)N[C@@H](CCC(=O)O)C(=O)N[C@@H](CCC(N)=O)C(=O)N[C@@H](Cc1ccc(O)cc1)C(=O)N[C@@H](Cc1ccc(O)cc1)C(=O)N[C@H](C(=O)N[C@@H](CO)C(=O)N[C@@H](CC(C)C)C(=O)N[C@@H](CCCNC(=N)N)C(=O)N[C@@H](Cc1c[nH]cn1)C(=O)N[C@@H](Cc1ccc(O)cc1)C(=O)N[C@@H](Cc1ccc(O)cc1)C(=O)N[C@@H](CC(N)=O)C(=O)N[C@@H](Cc1c[nH]c2ccccc12)C(=O)N[C@@H](CC(C)C)C(=O)N[C@H](C(=O)N[C@@H](CCCNC(=N)N)C(=O)N[C@@H](CCC(N)=O)C(=O)N[C@@H](CCCNC(=N)N)C(=O)N[C@@H](Cc1ccc(O)cc1)C(N)=O)[C@@H](C)O)C(C)C)", "note": "[Compound 216]", "values": [
      {"measurement": "Ki", "result": 0.93, "unit": "nM"}
    ]},
    {"binder": "Isovaleryl-APEK([AEEA-AEEA-γGlu-C18 diacid])PEEDASPAELQRYYVELRHYYNWLTRQRY-NH2 (SMILES CC(C)CC(=O)N[C@@H](C)C(=O)N1CCC[C@H]1C(=O)N[C@@H](CCC(=O)O)C(=O)N[C@@H](CCCCNC(=O)COCCOCCNC(=O)COCCOCCNC(=O)CC[C@H](NC(=O)CCCCCCCCCCCCCCCCC(=O)O)C(=O)O)C(=O)N1CCC[C@H]1C(=O)N[C@@H](CCC(=O)O)C(=O)N[C@@H](CCC(=O)O)C(=O)N[C@@H](CC(=O)O)C(=O)N[C@@H](C)C(=O)N[C@@H](CO)C(=O)N1CCC[C@H]1C(=O)N[C@@H](C)C(=O)N[C@@H](CCC(=O)O)C(=O)N[C@@H](CC(C)C)C(=O)N[C@@H](CCC(N)=O)C(=O)N[C@@H](CCCNC(=N)N)C(=O)N[C@@H](Cc1ccc(O)cc1)C(=O)N[C@@H](Cc1ccc(O)cc1)C(=O)N[C@H](C(=O)N[C@@H](CCC(=O)O)C(=O)N[C@@H](CC(C)C)C(=O)N[C@@H](CCCNC(=N)N)C(=O)N[C@@H](Cc1c[nH]cn1)C(=O)N[C@@H](Cc1ccc(O)cc1)C(=O)N[C@@H](Cc1ccc(O)cc1)C(=O)N[C@@H](CC(N)=O)C(=O)N[C@@H](Cc1c[nH]c2ccccc12)C(=O)N[C@@H](CC(C)C)C(=O)N[C@H](C(=O)N[C@@H](CCCNC(=N)N)C(=O)N[C@@H](CCC(N)=O)C(=O)N[C@@H](CCCNC(=N)N)C(=O)N[C@@H](Cc1ccc(O)cc1)C(N)=O)[C@@H](C)O)C(C)C)", "note": "[Compound 215]", "values": [
      {"measurement": "Ki", "result": 0.48, "unit": "nM"}
    ]},
    {"binder": "Isovaleryl-APEK([AEEA-AEEA-γGlu-C18 diacid])PEEAASAEELQRYYVSLRHYYNWLTRQRY-NH2 (SMILES CC(C)CC(=O)N[C@@H](C)C(=O)N1CCC[C@H]1C(=O)N[C@@H](CCC(=O)O)C(=O)N[C@@H](CCCCNC(=O)COCCOCCNC(=O)COCCOCCNC(=O)CC[C@H](NC(=O)CCCCCCCCCCCCCCCCC(=O)O)C(=O)O)C(=O)N1CCC[C@H]1C(=O)N[C@@H](CCC(=O)O)C(=O)N[C@@H](CCC(=O)O)C(=O)N[C@@H](C)C(=O)N[C@@H](C)C(=O)N[C@@H](CO)C(=O)N[C@@H](C)C(=O)N[C@@H](CCC(=O)O)C(=O)N[C@@H](CCC(=O)O)C(=O)N[C@@H](CC(C)C)C(=O)N[C@@H](CCC(N)=O)C(=O)N[C@@H](CCCNC(=N)N)C(=O)N[C@@H](Cc1ccc(O)cc1)C(=O)N[C@@H](Cc1ccc(O)cc1)C(=O)N[C@H](C(=O)N[C@@H](CO)C(=O)N[C@@H](CC(C)C)C(=O)N[C@@H](CCCNC(=N)N)C(=O)N[C@@H](Cc1c[nH]cn1)C(=O)N[C@@H](Cc1ccc(O)cc1)C(=O)N[C@@H](Cc1ccc(O)cc1)C(=O)N[C@@H](CC(N)=O)C(=O)N[C@@H](Cc1c[nH]c2ccccc12)C(=O)N[C@@H](CC(C)C)C(=O)N[C@H](C(=O)N[C@@H](CCCNC(=N)N)C(=O)N[C@@H](CCC(N)=O)C(=O)N[C@@H](CCCNC(=N)N)C(=O)N[C@@H](Cc1ccc(O)cc1)C(N)=O)[C@@H](C)O)C(C)C)", "note": "[Compound 220]", "values": [
      {"measurement": "Ki", "result": 2.99, "unit": "nM"}
    ]}
  ]
}
